Consider one substance from patent US20130012427A1.

What all share (experiment): cell-based or functional assay
Test [1] addresses human amylin 3(a) receptor (human calcitonin receptor co-expressed with RAMP-3) (human) (UniProt P30988).
Test [2] concerns the target human amylin 3(a) receptor (human calcitonin receptor with RAMP-3) (human) (UniProt P30988).
In test [3] the target is human calcitonin (a) receptor (human) (UniProt P30988).
Chain of human calcitonin (a) receptor (human) (P30988 25-474): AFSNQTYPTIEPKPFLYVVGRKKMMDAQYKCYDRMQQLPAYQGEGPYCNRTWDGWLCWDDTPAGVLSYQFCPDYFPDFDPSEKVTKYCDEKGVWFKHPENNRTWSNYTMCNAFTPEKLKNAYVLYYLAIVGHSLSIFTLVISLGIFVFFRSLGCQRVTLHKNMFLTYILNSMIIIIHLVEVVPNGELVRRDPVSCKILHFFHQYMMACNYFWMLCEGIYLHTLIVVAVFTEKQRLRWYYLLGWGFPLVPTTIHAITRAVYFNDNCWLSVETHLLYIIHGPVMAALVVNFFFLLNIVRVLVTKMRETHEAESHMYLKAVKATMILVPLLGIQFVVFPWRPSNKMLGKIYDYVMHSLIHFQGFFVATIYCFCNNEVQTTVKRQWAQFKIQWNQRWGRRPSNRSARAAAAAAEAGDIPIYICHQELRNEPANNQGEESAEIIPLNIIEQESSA

Chain of human amylin 3(a) receptor (human calcitonin receptor co-expressed with RAMP-3) (human) (P30988 25-474, chain 1 of 2): as the sequence (P30988 25-474) above
Chain of human amylin 3(a) receptor (human calcitonin receptor co-expressed with RAMP-3) (human) (O60896 24-148, chain 2 of 2, further chain): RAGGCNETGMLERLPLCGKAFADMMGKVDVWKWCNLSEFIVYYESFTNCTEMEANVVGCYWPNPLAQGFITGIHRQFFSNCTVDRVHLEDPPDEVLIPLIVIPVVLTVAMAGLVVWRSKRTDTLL
Chain of human amylin 3(a) receptor (human calcitonin receptor with RAMP-3) (human) (P30988 25-474, chain 1 of 2): as the sequence (P30988 25-474) above
Chain of human amylin 3(a) receptor (human calcitonin receptor with RAMP-3) (human) (O60896 24-148, chain 2 of 2, further chain): as the sequence (O60896 24-148, chain 2 of 2, further chain) above

Turning to “N-alpha-(19-carboxynonadecanoyl)-Glu-Glu-Arg-[Glu1,Pro37]-pramlintide (peptide)”, the Amylin receptor human EC50 (pM) in test [1] and in test [2] was 45 pM throughout. The CTa receptor human EC50 (pM) in test [3] was determined as 61.5 pM.
